Kd data for 1 molecule are collected here from patent US20180371091A1 (JOUNCE THERAPEUTICS, published 2018).

Holding throughout (test): BLI (Octet RED96), monovalent, monomeric ICOS; mean ± SEM of 6 experiments
In experiment [1] the target is T1, monomeric form of cynomolgus monkey ICOS (cynomolgus monkey, UniProt Q9Y6W8 21-140 (human entry), limits assumed).
T1 chain: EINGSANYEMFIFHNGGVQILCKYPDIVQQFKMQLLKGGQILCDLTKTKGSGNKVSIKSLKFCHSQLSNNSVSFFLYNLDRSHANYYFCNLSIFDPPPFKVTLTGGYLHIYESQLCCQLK
As for the experimental part: (§1) The affinity of a humanized antibody having the variable regions of 37A10S713 for monomeric forms of ICOS from human, cynomolgus monkey and rat was measured by Bio-Layer Interferometry (BLI) technology (ForteBio Octet® RED96) and KD's are shown in Table 5. […] Functionality of binding was confirmed by assessing potency of inducing proliferation of primary CD4+ T cells isolated from each species.

Experiment [2] addresses T2, monovalent, heterodimeric human ICOS-Fc (human).
T2 construct: Make-up of the heterodimer is not described; also called Monomeric hICOS; monomeric form of human ICOS; not shown: The human IgG1 Fc fused to ICOS, and the partner Fc chain of the heterodimer
T2 chain: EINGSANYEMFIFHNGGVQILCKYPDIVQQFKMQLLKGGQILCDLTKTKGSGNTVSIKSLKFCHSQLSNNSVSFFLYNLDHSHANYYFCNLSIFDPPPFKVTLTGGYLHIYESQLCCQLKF
As for the experimental part: as §1

Experiment [3] has as its target T3, monomeric form of rat ICOS (rat, UniProt Q9R1T7 21-145, limits assumed).
T3 sequence: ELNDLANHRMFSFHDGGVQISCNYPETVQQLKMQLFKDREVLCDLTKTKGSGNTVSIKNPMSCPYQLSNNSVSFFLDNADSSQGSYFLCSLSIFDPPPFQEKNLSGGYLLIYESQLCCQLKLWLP
As for the experimental part:
as §1

B1: 37A10S713 (antibody, V domains shown)
VH: EVQLVESGGGLVQPGGSLRLSCAASGFTFSDYWMDWVRQAPGKGLVWVSNIDEDGSITEYSPFVKGRFTISRDNAKNTLYLQMNSLRAEDTAVYYCTRWGRFGFDSWGQGTLVTVSS
VL: DIVMTQSPDSLAVSLGERATINCKSSQSLLSGSFNYLTWYQQKPGQPPKLLIFYASTRHTGVPDRFSGSGSGTDFTLTISSLQAEDVAVYYCHHHYNAPPTFGPGTKVDIK
notes: also called humanized antibody having the variable regions of 37A10S713; 37A10S713-hIgG1
For B1, the Kd in experiment [1] is 0.66 nM; in experiment [2], 1.5 nM; in experiment [3] it was 7.2 nM.
